Reference: US20250281653A1, “METHODS FOR TREATING PROSTATE CANCER WITH RADIOPHARMACEUTICALS” (ARTBIO, Inc., priority 2024, published 2025)
“And” between values parts separate entries of the source, which are not always exact repeats. Equal entries are not always repeated.

Assays:
[1] = Baseline F18-PSMA-PET/CT: normal tissue evaluation at screening; type: in vivo, human; conditions: individual participants
Procedure: Participants underwent a standard of care diagnostic ^18F-PSMA-PET/CT at baseline (i,e, within six weeks prior to administration of ^212Pb-Compound 1).
PSMA-PET/CT was conducted using the radiotracer ^18F-PSMA-1007: dose 2.5 MBq/kg (minimum 200 MBq, maximum 300 MBq) with PET acquisition performed approximately 120 minutes post-injection.
Each patient received a baseline PSMA-PET/CT evaluation utilizing an F18-PSMA-PET tracer during the screening period (i.e. prior to ^212Pb-Compound 1 administration).
The pattern of PSMA-PET CT tracer uptake in normal organs is within expectations in each case; with notable uptake in the salivary glands (SUVmax range 20.06-30.7), kidneys (SUVmax range 18.7-35.2) and liver (SUVmax range 14.5-25.5).

[2] = in vivo; cited from earlier work
[3] = design: species or system human; conditions: in vivo
Procedure: (§1) Study drug administration: a single injection of 10 MBq for ^212Pb-Compound 1 was administered for each participant. Administration was by slow bolus IV injection via a 3-way adapter coupled to a conventional isotonic saline solution. • The timepoint of injection of ^212Pb-Compound 1 was defined as Day 0, 0 hours. […] Full blood and plasma were measured separately to investigate ligand in vivo stability. […]
(§2) • Non-invasive gamma camera imaging with both planar gamma imaging (whole body scintigraphy) and SPECT/CT was performed at 2 timepoints following injection of ^212Pb-Compound 1: • 1-3 hours and 16-24 hours • The planar gamma camera imaging was acquired immediately before the SEPCT/CT imaging • Performed on a Siemens Symbia Intevo Bold hybrid scanner using a medium energy low penetration (MELP) or high energy (HE) collimator. • The same scanner was used for all acquisitions of all patients in the study. • Scanner room background radiation was measured 0.5 m from the SPECT/CT scanner table, over a time period of one minute, before the participant entered the scanner room. […]

[4] = design: species or system human; conditions: in vivo; remark: listed apart in the source
Procedure: as §1, §2

[5] = design: species or system human; conditions: in vivo; remark: listed apart in the source
Procedure: The sample size was three participants.
Study drug administration: a single injection of 10 MBq for ^212Pb-Compound 1 was administered for each participant. Administration was by slow bolus IV injection via a 3-way adapter coupled to a conventional isotonic saline solution. • The timepoint of injection of ^212Pb-Compound 1 was defined as Day 0, 0 hours. Imaging, whole-body probe and blood assessments of clearance were performed at the following timepoints: • Gamma camera imaging (both planar and SPECT/CT) was scheduled 1-3 hours and 16-24 hours post injection. • Clearance was assessed with blood sampling and whole-body probe measurements at the following timepoints: 15 min after dose (+/−15 min window), 1 h after dose (+1 h window), 4 h after dose (+2 h window), 16 h after dose (+8 h window). Full blood and plasma were measured separately to investigate ligand in vivo stability. Follow-up: Patients were followed-up for safety and tolerability for 28 days post-administration of ^212Pb-Compound 1, with visits on Day 14 and Day 28. Adverse events were reported per CTCAE v5 from time of informed consent until end of follow-up. Patients were followed-up for efficacy biomarkers (PSA, ALP) for 28 days post-administration of ^212Pb-Compound 1.
All 3 patients consented and administered ^212Pb-Compound 1 subsequently completed the planned safety follow up period (no withdrawals from the clinical trial).

## O=C(O)CC[C@H](NC(=O)N[C@@H](CCCCNC(=O)[C@H](Cc1ccc2ccccc2c1)NC(=O)c1ccc(CNC(=O)[C@H](CCC(=O)O)NC(=O)[C@H](CCC(=O)O)NC(=O)c2ccc([18F])nc2)cc1)C(=O)O)C(=O)O [Compound F18-PSMA-PET]
[1]
  SUV max, Bladder, including contents: 8.3 and 2.8 and 3
  SUV max, Blood pool: 1.2 and 0.8 and 1.3
  SUV max, Bone Marrow: 1.8 and 1.3 and 1
  SUV max, Kidneys: 35.2 and 26.8 and 18.7
  SUV max, Liver: 14.5 and 25.5 and 14.8
  SUV max, Salivary gland: 30.7 (2×) and 20.6
  SUV max, Spleen: 16.2 and 7.2 and 15.3
  SUV mean, Bladder, including contents: 6.2 and 2.3 (2×)
  SUV mean, Blood pool: 0.7 and 0.6 and 1.1
  SUV mean, Bone Marrow: 1.3 and 0.9 and 0.7
  SUV mean, Kidneys: 19.2 and 16.1 and 11.4
  SUV mean, Liver: 11.3 and 21.8 and 12.5
  SUV mean, Salivary gland: 18.5 and 13 and 19.8
  SUV mean, Spleen: 12.6 and 6.1 and 13.7
[1]; listed as PSMA-PET CT tracer
  SUV max, Kidneys: 18.7 to 35.2
  SUV max, Liver: 14.5 to 25.5

## O=C([O-])CN1CCN(CC(=O)[O-])CCN(CC(=O)NCC2CCC(C(=O)N[C@@H](Cc3ccc4ccccc4c3)C(=O)NCCCC[C@H](NC(=O)N[C@@H](CCC(=O)O)C(=O)O)C(=O)O)CC2)CCN(CC(=O)[O-])CC1.[177Lu+3] (stereo partly shown) [^177Lu-PSMA-617, lutetium Lu 177 vipivotide tetraxetan]
[2]
  Dry mouth (i.e., xerostomia), proportion of population: 38.8%

## NC(=O)CN1CCN(CC(N)=O)CCN(CC(N)=O)C(Cc2ccc(NC(=S)NC[C@H]3CC[C@H](C(=O)N[C@@H](Cc4ccc5ccccc5c4)C(=O)NCCCC[C@H](NC(=O)N[C@@H](CCC(=O)O)C(=O)O)C(=O)O)CC3)cc2)CN(CC(N)=O)CC1 (stereo partly shown) [^212Pb-Compound 1, metal not drawn]
[3]
  ^212Pb-Compound 1 uptake in retrocaval lymph node metastasis (most PSMA-avid lesion): uptake at the 1 hour time point for one lesion
[4]
  Participants with ^212Pb-Compound 1 uptake by the liver: one participant at the 1 hr time point
[5]
  Adverse reactions, SAEs, SUSARs or deaths: No adverse reactions, serious adverse events (SAEs), suspected unexpected serious adverse events (SUSARs) or deaths were reported
  CTCAE grade of the TEAE abdominal pain: 2
  Differences or trends in hematology, biochemistry and urinalysis from baseline (incl. ALT, AST, bilirubin, albumin, egfr, creatinine): no clinically significant differences or trends
  ECOG performance score at all visits evaluated: 1
  ECOG performance status, change from baseline to end of study visit: remained unchanged
  Individual measurements of hematological and clinical chemistry parameters: within their normal reference ranges
  Investigator-assessed relationship of all TEAEs to ^212Pb-Compound 1: probably unrelated
  Number (%) of Participants with TEAE: Abdominal pain: 1 (33)
  Number (%) of Participants with TEAE: Constipation: 1 (33)
  Number (%) of Participants with TEAE: Erythema: 1 (33)
  Number (%) of Participants with TEAE: General disorders and administration site conditions: 1 (33)
  Number (%) of Participants with TEAE: Injury, poisoning and procedural complications: 1 (33)
  Number (%) of Participants with TEAE: Localized oedema: 1 (33)
  Number (%) of Participants with TEAE: Skin and subcutaneous tissue disorders: 1 (33)
  Number (%) of Participants with TEAE: Tooth fracture: 1 (33)
  Number (%) of Participants with TEAE: Vomiting: 1 (33)
  Performance status (ECOG): 1
  Risk of xerostomia inferred from absent salivary gland uptake: lower risk of xerostomia
